B1: GST-tagged MAGE-C2 MHD domain (residues 140-350) (domain or fragment, human, UniProt Q9UBF1 140-350, looked up)
chain: TLDEKVAELVEFLLLKYEAEEPVTEAEMLMIVIKYKDYFPVILKRAREFMELLFGLALIEVGPDHFCVFANTVGLTDEGSDDEGMPENSLLIIILSVIFIKGNCASEEVIWEVLNAVGVYAGREHFVYGEPRELLTKVWVQGHYLEYREVPHSSPPYYEFLWGPRAHSESIKKKVLEFLAKLNNTVPSSFPSWYKDALKDVEERVQATIDT
notes: MAGE-C2, human, MAGE homology domain (MHD), residues 140-350; synthetic gene in pGEX-6p-1; In the ubiquitination assays other forms were used (GST cut off in vitro; Myc-tagged in HEK293T cells); also called MHD^WT; GST-MAGE-C2; source: E. coli BL21 (DE3), purified (glutathione Sepharose); not shown: GST, N-terminal, kept
B2: GST-tagged MAGE-C2 full length (residues 1-373) (natural protein, human, UniProt Q9UBF1 1-373, looked up)
chain: MPPVPGVPFRNVDNDSPTSVELEDWVDAQHPTDEEEEEASSASSTLYLVFSPSSFSTSSSLILGGPEEEEVPSGVIPNLTESIPSSPPQGPPQGPSQSPLSSCCSSFSWSSFSEESSSQKGEDTGTCQGLPDSESSFTYTLDEKVAELVEFLLLKYEAEEPVTEAEMLMIVIKYKDYFPVILKRAREFMELLFGLALIEVGPDHFCVFANTVGLTDEGSDDEGMPENSLLIIILSVIFIKGNCASEEVIWEVLNAVGVYAGREHFVYGEPRELLTKVWVQGHYLEYREVPHSSPPYYEFLWGPRAHSESIKKKVLEFLAKLNNTVPSSFPSWYKDALKDVEERVQATIDTADDATVMASESLSVMSSNVSFSE
notes: MAGE-C2, human, full length, residues 1-373; synthetic gene in pGEX-6p-1 with a 3C protease site after GST; In the ubiquitination assays the GST tag had been cut off with 3C protease; in the pull-down GST was kept; also called MAGE-C2 FL; GST-MAGE-C2; source: E. coli BL21 (DE3), purified (glutathione Sepharose); not shown: GST, N-terminal, kept

Target: T1, SUMO-MDM2 (full length, residues 1-491) (human, UniProt Q00987 1-491)
T1 construct: MDM2, human, full length, residues 1-491; cloned into a SUMO vector (modified pET-28a); eluted without tag cleavage; also called sumo-tagged MDM2; SUMO-MDM2 fusion protein; source: E. coli BL21 (DE3), purified (HisTrap, Superdex 200)
T1 sequence (Q00987 whole entry, the tested form may be a part): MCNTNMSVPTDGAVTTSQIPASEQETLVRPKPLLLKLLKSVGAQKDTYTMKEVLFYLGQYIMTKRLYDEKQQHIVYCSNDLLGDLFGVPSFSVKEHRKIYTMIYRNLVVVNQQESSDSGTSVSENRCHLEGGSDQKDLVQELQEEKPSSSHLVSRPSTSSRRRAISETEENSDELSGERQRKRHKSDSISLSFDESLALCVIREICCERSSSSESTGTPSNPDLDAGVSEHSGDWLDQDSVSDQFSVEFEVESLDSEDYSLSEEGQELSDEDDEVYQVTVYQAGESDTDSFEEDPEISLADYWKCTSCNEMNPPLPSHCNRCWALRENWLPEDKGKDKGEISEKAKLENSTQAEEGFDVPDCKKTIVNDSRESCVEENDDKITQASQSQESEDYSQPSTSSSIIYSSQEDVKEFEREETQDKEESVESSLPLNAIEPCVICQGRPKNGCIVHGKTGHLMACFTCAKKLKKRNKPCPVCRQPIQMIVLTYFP
Assay: pull-down; GST-tagged MAGE-C2 proteins on glutathione Sepharose beads, SUMO-MDM2 added; both expressed in bacterium; 20 mM Tris pH 8, 150 mM NaCl, 0.2 mM TCEP, 0.02% Triton-100, 5% milk powder, 4°C; anti-MDM2 Western blot (Figure 2A)
Conditions: both partners purified

Row | Binder | binding result
1 | B1 | binds
2 | B2 | binds

Source: paper PMC9344466, “The Dual Roles of MAGE-C2 in p53 Ubiquitination and Cell Proliferation Through E3 Ligases MDM2 and TRIM28” (Frontiers in Cell and Developmental Biology, 2022)
